Results reported in the supplement of paper PMC9732359.
± gives the uncertainty stated by the source.

Assay: protein stability index of a GFP-peptide fusion (yeast GPS) (PSI 1-4); higher = more stable; sorted into four equal gates, so the index is relative within each strain
Outline: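 The protein stability index of a peptide was calculated by multiplying its read frequency in each gate by that gate's number and adding the products. The peptides were tiled 17-residue stretches of yeast proteins, fused downstream of GFP on a Cherry-expressing plasmid and carried in yeast as a pooled library. Mid-log cultures in leucine-free medium were sorted into four equal gates by GFP/Cherry ratio, and each gate's plasmids were PCR-amplified and Illumina-sequenced.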

Sequence	protein stability index (doa10∆)	protein stability index (pdr5∆)	protein stability index (san1∆)	protein stability index (ubr1∆)
LGRTGSRGGVTQVRVEF [RPS28A]	3.29 ± 0.053	3.19 ± 0.053	3.31 ± 0.047	3.19 ± 0.044
LGTLVNQKTSAVAALTE [RPL8A]	2.37 ± 0.095	2.45 ± 0.082	2.4 ± 0.15	2.25 ± 0.11
LGTVQREIESLIAEETN [SMC3]	2.79 ± 0.18	2.83 ± 0.082	3.01 ± 0.12	2.91 ± 0.15
LGVIHKGNLLEGKKVMA [RPN2]	1.37 ± 0.07	1.33 ± 0.048	1.17 ± 0.11	1.22 ± 0.057
LHKIFYKVLKNNGLPEC [YCG1]	1.68 ± 0.045	1.95 ± 0.043	2.45 ± 0.049	2.13 ± 0.04
LHKLELKAKNQEEEGEL [DSN1]	3.14 ± 0.17	3.29 ± 0.17	3.37 ± 0.14	3.25 ± 0.1
LHKNFESENFKIIALQP [RGR1]	2.56 ± 0.076	2.62 ± 0.078	2.7 ± 0.06	2.58 ± 0.073
LHKRQQFSESTHNDIDS [YJL039C/NUP192]	2.9 ± 0.081	3.03 ± 0.091	2.78 ± 0.051	3.03 ± 0.05
LHYTPIEDLWQFLYEKH [RPC82]	2.24 ± 0.13	2.28 ± 0.13	2.14 ± 0.12	2.4 ± 0.16
LIELLEKLDVSRSSVCV [YCG1]	2.44 ± 0.072	2.32 ± 0.058	2.05 ± 0.08	1.88 ± 0.065
LIELSGGQRSLIALSLI [SMC2]	2.42 ± 0.078	2.29 ± 0.09	1.86 ± 0.1	2.27 ± 0.035
LIETVRQMKDVNAPLPT [RPN2]	3.12 ± 0.055	3.12 ± 0.051	2.9 ± 0.05	3.04 ± 0.036
LIGCIDEAKDFIVSGTA [PUP3]	2.59 ± 0.058	2.67 ± 0.061	2.66 ± 0.053	3.01 ± 0.044
LIITRKAFKNNSSKYYI [SMC4]	2.59 ± 0.083	2.98 ± 0.092	2.66 ± 0.068	2.69 ± 0.11
LILRDFLNNGEVDSASD [RPN3]	3.07 ± 0.19	2.89 ± 0.17	2.63 ± 0.23	3.2 ± 0.29
LILSGDTTANNGKVQYF [YJL039C/NUP192]	2.89 ± 0.091	2.52 ± 0.086	2.9 ± 0.09	2.95 ± 0.064
LILTSHNMKAYYKKFLI [BRR2]	–	–	–	2.54 ± 0.14
LINLKISPLMKSQYNMV [SRB8]	1.8 ± 0.085	1.59 ± 0.08	2.07 ± 0.14	1.53 ± 0.12
LIQLQNIFKAEMDSVSK [CSN9]	2.55 ± 0.08	2.54 ± 0.14	–	2.81 ± 0.13
LIRPSSKVIIKFLQVMQ [RPS22A]	1.86 ± 0.036	1.82 ± 0.03	2.02 ± 0.052	2.25 ± 0.034
LISIISSVIQNYDIITA [YML103C/NUP188]	1.81 ± 0.083	1.42 ± 0.1	–	1.3 ± 0.2
LISRLCPNSTGAELRSV [RPT1]	1.85 ± 0.043	1.77 ± 0.047	1.84 ± 0.073	1.73 ± 0.042
LIVIDVVEGVTFVVEQL [SNU114]	1.57 ± 0.044	1.92 ± 0.061	2.56 ± 0.082	2.92 ± 0.04
LIYGISDEERDDEDDEH [AAR2]	3.22 ± 0.11	3.05 ± 0.097	3.52 ± 0.066	3.06 ± 0.099
LKFFLVDENETVLESLG [LIN1]	3.26 ± 0.27	2.94 ± 0.092	2.9 ± 0.18	3.04 ± 0.15
LKFLYLLDAYSHIESDS [MED1]	2.46 ± 0.091	2.44 ± 0.075	2.8 ± 0.061	2.64 ± 0.057
LKFMAASEVATHSKLFA [PRP8]	2.91 ± 0.085	3.07 ± 0.082	2.78 ± 0.062	2.7 ± 0.073

Sequence	protein stability index (doa10∆)	protein stability index (pdr5∆)	protein stability index (san1∆)	protein stability index (ubr1∆)
LKGLLQELKADSPFSLI [SRP72]	1.43 ± 0.059	1.26 ± 0.059	2.42 ± 0.092	1.45 ± 0.046
LKKIASIPNLFPTDLEI [SWI1]	2.59 ± 0.051	2.69 ± 0.044	2.55 ± 0.053	2.64 ± 0.036
LKKLEKFMELERKTLER [SWI3]	2.95 ± 0.061	2.84 ± 0.069	3.18 ± 0.046	2.66 ± 0.058
LKKLKAMNDACYEKVLE [BRR2]	3.18 ± 0.074	3.26 ± 0.061	3.12 ± 0.039	3.05 ± 0.058
LKLGLVEYLDVNEENDS [RET1]	3.11 ± 0.075	3.08 ± 0.086	3.16 ± 0.071	3.1 ± 0.075
LKLSQAFGSSATDISGE [YJR042W/NUP85]	2.76 ± 0.065	2.05 ± 0.067	2.56 ± 0.059	2.14 ± 0.048
LKNLRKKLNFKLCQAFM [YJR042W/NUP85]	2.19 ± 0.089	2.18 ± 0.093	1.61 ± 0.15	2.98 ± 0.15
LKNVNKRAFENFKKFNE [SMC3]	2.23 ± 0.086	1.95 ± 0.15	1.91 ± 0.094	1.88 ± 0.09
LKQEGAANKTVVVVGTV [RPL18A]	2.94 ± 0.27	3.31 ± 0.11	2.51 ± 0.11	3.46 ± 0.12
LKREERQGLIHQGSGGS [SMC3]	–	3.52 ± 0.1	–	–
LKRYCCRRMILTHVDLI [RPB10]	–	1.54 ± 0.11	–	1.57 ± 0.12
LKSSLADVLSILAMTYS [RPN1]	1.7 ± 0.062	2.02 ± 0.12	1.89 ± 0.19	1.96 ± 0.059
LKSTKHSISEAENMLEE [SMC4]	3.06 ± 0.081	2.87 ± 0.12	3.06 ± 0.077	3.11 ± 0.05
LKTFHFAGVASMNVTLG [RPO31]	2.17 ± 0.081	2.25 ± 0.048	2.34 ± 0.093	1.98 ± 0.055
LKVLSGDEGYNEDMVRR [SNF12]	3.48 ± 0.13	3.22 ± 0.13	3.25 ± 0.095	3.56 ± 0.15
LKVTKKHGAKKVAKRTK [RPL27A]	3.37 ± 0.13	3.54 ± 0.17	3.39 ± 0.11	3.18 ± 0.13
LKYSKRRSLKKQGRIKN [CSN12]	3.01 ± 0.064	3.27 ± 0.069	3.21 ± 0.098	3.25 ± 0.036
LLAQLNGTVNNNSALSN [RPT3]	3.23 ± 0.25	2.25 ± 0.14	1.88 ± 0.097	2.34 ± 0.075
LLATKQHDSSANEDEEE [CSN12]	2.85 ± 0.12	3.05 ± 0.089	2.72 ± 0.086	2.87 ± 0.1
LLCDKAQKNTQSYGGRP [PRE5]	3.17 ± 0.14	3.27 ± 0.095	3.37 ± 0.092	3.26 ± 0.077
LLDKYGKTGLSNMILGS [YML103C/NUP188]	2.34 ± 0.078	2.75 ± 0.11	2.26 ± 0.095	2.12 ± 0.058
LLDRILPKLKATGHRVL [SNF2]	2.57 ± 0.1	2.54 ± 0.08	2.3 ± 0.08	2.63 ± 0.088
LLERTREIHNEAESQLR [FAS2]	2.97 ± 0.12	2 ± 0.087	2.21 ± 0.22	2.54 ± 0.08
LLIDQFSPVISQSLTSI [SWI1]	1.64 ± 0.074	1.99 ± 0.067	1.64 ± 0.11	1.66 ± 0.064
LLIIRSLKNTDALLNST [YJL039C/NUP192]	2.97 ± 0.086	3 ± 0.096	2.37 ± 0.14	2.45 ± 0.15
LLKDDTYQLCVRLRSNV [RPN3]	1.47 ± 0.076	1.85 ± 0.29	–	1.25 ± 0.2
